experiment: soluble on expression in E. coli; label from the status in PepcDB or PDB records

| Sequence | soluble on expression in E. coli |
| --- | --- |
| MGSDKIHHHHHHACSGQLDTIQEYLDAGETIYAAKMDSVDIRPGYNRVEVTGLLKYGMDTERCVIHWTPDNDSLVVPVKRIDPVDTFRVFIENLPEGTYQFEIVTYNKSGYRSISTSKGSKTYGDRYISSLRVRSLLSTEVEGENLLLNFSSEMAEALATKVFYLNSAGEKQEQEVARGDNQIKITDWKPRGAYEVKTYYIPEVNAVDTFSVSSTGVFPEKIVEMDKSTFREIILDNDIRLNAWGGALWKAWDNAYENTNYAHSDNTNPIVFPAWFTFDLGEKALLKRFDLFSVVRDDLNYNGGNMKSWEIWGREDEPANSSWDGWTKLITCNSFKPSGKPVGENTDEDNSYIAKGEKFDFPSGIPEVRYIRIKVLDSWSGQGYVQFSEFTFYKSE | not soluble |
| MGSDKIHHHHHHAEEQVYSESEVSTVLSKLEKEAISEAAAEQYTVVDRKEDAWGMKHLKLEKQTEGVTVDSDNVIIHLDRNGAVTSVTGNPVDQVVKIQSVDAIGEEGVKKIIASDNPETKDLVFLAIDKRVNNEGQLFYKVRVTSSPTGDPVSLVYKVNATDGTIMEKQDLTEHVGSEVTLKNSFQVAFNVPVEKSNTGIALHGTDNTGVYHAVVDGKNNYSIIQAPSLVALNQNAVDAYTHGKFVKTYYEDHFQRHSIDDRGMPILSVVDEQHPDAYDNAFWDGKAMRYGETSTPTGKTYASSLDVVGHEMTHGVTEHTAGLEYLGQSGALNESYSDLMGYIISGASNPEIGADTQSVDRKTGIRNLQTPSKHGQPETMAQYDDRARYKGTPYYDQGGVHYNSGIINRIGYTIIQNLGIEKAQTIFYSSLVNYLTPKAQFSDARDAMLAAAKVQYGDEAASVVSAAFNSAGIGAKEDIQVNQPSESVLVNE | not soluble |
| MGSDKIHHHHHHAGEKLVESAAAPRIINIINFIRQTDYRVENADSLLYETVCEQVKLVNKYDLPATFLLQYDALINPLYQDLLKSKLNAHSEIGAWWELTQPQIEAAGIKWRGEHSWVSHANIAFSTGYTKEERERLVDVYMAKFKEIFGTYPKSVGSWFIDAHTLGYMYDKYKIVASCNCKDQVGTDGYTLWGGYWNQAYYPSRVNAYMPAQTEEGQIPVPIFRMLGSDPIYQYDDGLGQERQGVISLEPVYEKAGMDRRWVDYFLESIVNQPCLAFNYAQAGQENSFTWSNMSKGLEMQIPILDSLRKENKIRVETLGESGAWFKECFKVTPPTAVTTLTDVRGEGNKTVWFNSRYYRANLLWERGTFRFRDIHLFDEGYKSAYMEKPGDGNQFLFYTLPVVDGFMWSEGLDRAGLRIVRLDKDGDKEELTLDHPVVTEIGKDTLVVSAEDSKGHPFKITFYETRFEVAALSKEADLSWALELKVAAGKELPFTVIEDKAVNASFDGFNYVITCKKGHIRKPESGSDYVFRILPSDKEIVINCTNTRLNCTHEK | not soluble |
| MGSDKIHHHHHHAGKQNEVELVAEKQLAFPLDEQTYYLSKSMFQFEENGKEYLHFENTQKSLYDIVIFDIENQQIAKRIPLHKTGPNGLPAVFGSRPSPDSQYILVAQNNISRLSSINSQGEIIRNYNFQTPEGRFTPLSFGSYYNAPAFIKDSCIFLRQEILKPDMKKEDWPRTHMFASQDLRTGEVKWIPIFYPPIFKEEYDNIAGGYGFSYDYNYKESRLVCGFFGYDSLMVTDDLKHIRWYNAKSRYLKSMKPKLGNSMEGINAIIKLNENPRYWHIMYDKYRNVYYRFAEMPYKLAPNESPYETPKGKEFSVIVLNADFEIIGETKFPGKKYFYKMSFVGREGLYISENNLENPQFDENKLVFTCFKIKNASPNK | not soluble |
| MGSDKIHHHHHHALSPETGSTSVAVMGRQLYEEMRLDQWVCFDAFMQGLRGSEKIDRKNKDILTLIDFSKPSTAERMVVLDIRQKRILYTSLVSHGKNSGGNYATSFSNENGSHKSSLGFYLTENTYQGRNGYSLILNGLEKGINDLAKQRAIVIHGASYSDPSVAASSGRLGRSFGCPALPVSVSKPIINTIKNGTLLFIYANDKNYLTQSSILSTQQENDIFHEKSYRKVL | not soluble |
| MGSDKIHHHHHHALSSIEKIQGKDRYETAAKIAQKQTYENVVLVNTDNTLADGLSASGLAGTVKAPILLSQRNSIPSDTEKMLKDVKKVYIIGTEDSIGKSVENELKQKGIEVKRIGGNDRIETSYLIAKEIASIKPIDKVFITNGYTGEADAMSASSVASRDGAPIILTNGKNVPFEKKEGVQCYALGSEEIISNDLVKKTNSVRLAGEDRFETNKKVIKHFYSSAKEFYLSKGYQLVDAVAGSSIAKNAPIVLVDGNSDKSVLRSADKITALGGIDEKTLEQCLSASSLDASAPTITVGNLNIYQGDKFDISKLNIVAKDSNGNDLTPELIGNINTDKVGKYKVTIKATDIGGKTTSISVEVNVLEYKTNDMNSSEFKRMVSSEMYSLVNSYRKEKGKEPLQVSENLQGMANYWSKYMADKGEFAHVINGKNAAEVFSGGIRSEENIAFVPLTTKSTYTTKDAREVANVIFTVWKKSDKYNENMLSSKFAYTGFGLYILPDGQVYATQEFLNK | not soluble |
| MGSDKIHHHHHHAPRTPPATDAWSGFRQLFELDPHYAHFANFLITSHPRPVREAIASLRAQLDQHPARCVEWDTQSEWKHEAEVREWAGRYLEVKPRQIALTGSTTEGLGMIYGGLRLNPQQEILTTEHEHYSTRNILAYRSQRDGTQVRKLRLFDDPAKVSDDQVLSTIAAAIKPQTRVLGMTWVHSGSGVKLPVGQIGALVHEANRNRDENDRILYVIDGVHGFGVEDMRFADLQCDYFIAGTHKWMFGPRGTGIICAASTELKHLTPTFATFSENEDFATTMTPGGYHAFEHRWALGKAFELHLQHGKAAIQARIHGLNDYLKERLAQHRAIELVTPRSPNHSAGFTFFRVKGQDVEAIAAHLNSQRIVVDAVDRDVGPVVRTAPGLLNTEAEIDRLVDVLGQRLRA | not soluble |
| MGSDKIHHHHHHAQPTDPSTTDSELTMLVGTYTSGNSKGIYTFRFNEETGESLPLSDAEVANPSYLIPSADGKFVYSVNEFSKDQAAVSAFAFDKEKGTLHLLNTQKTMGADPCYLTTNGKNIVTANYSGGSITVFPIGQDGALLPASDVIEFKGSGPDKERQTMPHLHCVRITPDGKYLLADDLGTDQIHKFNINPNANADNKEKFLTKGTPEAFKVAPGSGPRHLIFNSDGKFAYLINEIGGTVIAFRYADGMLDEIQTVAADTVNAQGSGDIHLSPDGKYLYASNRLKADGVAIFKVDETNGTLTKVGYQLTGIHPRNFIITPNGKYLLVACRDTNVIQIFERDQATGLLTDIKKDIKVDKPVCLKFVD | not soluble |
| MGSDKIHHHHHHAQQAPAPCGLVPSARQLEWYNREMIAFFHFGINTFEEYVNEGDGKASTAIFNPTALDCRQWMQTLKAAGIPAAILTAKHADGFCLWPSKYTDYSVKNAAWKNGKGDVVREFVDACEEYGLKAGIYLGPHDRHEHLSPLYTTERYKEYYAHQLGELMSDYGKIWETWWDGAGADELTTPVYRHWYKIVREKQPDCVIFGTKNSYPFADVRWMGNEAGEAGDPCWATTDSVAIRDEAQYYKGLNEGMLDGDAYIPAETDVSIRPSWFYHAEEDSRVKSVRELWDIYCTSVGRNSVLLLNFPPDRRGLIHSTDSLHAALLKQGIDETFSTNLLRGAKVKATNVRGAKYSPEKMLDNEKNTYFAGKDGEVKADIIFTLPKTIEFDCLMIEEVIELGHRTTKWSVEYTVDGKNWITIPEATDKQAIGHKWIVRLAPVKAKQVRLRIQDGKACPAIHTFGVYKQSPVFKL | not soluble |
| MGSDKIHHHHHHAQTCGATYITEFQYDLKKRTNWCNLLRLDAYVPIGTKGILEFASIHVYKTRPERIINDLQTFSNIEEDNLPCAIAVLGYTRLVGNVTLFAGIRNLNEDYFTTPCMSLFTNSSCGIFPTLSANYPIANYPLAALCLDYKMTLGRFGIESSLYNGKGYNGWSKGKHPFTFNPRKDGVFSITEINYQTEYGKCFGGFSLHTNGDMPDVAGEWKTREREKKVSPKMTFAWWGYAERKLWSRVRQEVNLLVQYTRTSSVFSECRNYMGAGVTWIYVPGGQKRHEAGLFLSAAQFKSCNEVAGEVTYRYSFNRDTYIQPAIHLIKNGGGLHEVFLIRMGYILNGGRVR | not soluble |
| MGSDKIHHHHHHATKTEQIPVNKTYAACPQNWIGVENKCFYFSEYPSNWTFAQAFCMAQEAQLARFDNQDELNFLMRYKANFDSWIGLHRESSEHPWKWTDNTEYNNTIPIRGEERFAYLNNNGISSTRIYSLRMWICSKL | not soluble |

— the DeepSol protein solubility set
